# Laboratory results from article PMC12599243, “Mechanistic insights into DNA binding by BD1 of the TAF1 tandem bromodomain module”.
# Tested on: TAF1 tandem bromodomain N1460F (human)
# Test: EMSA
# Details: no peptide; EMSA: 50 mM HEPES pH 7.5, 100 mM NaCl, 35 nM DNA, 1 h at 4 C; 6% native PAGE, 0.5x TBE, 100 V on ice. HeLa mononucleosome pulldown (undefined DNA) not listed.
substance,measurement,value
147 bp Widom 601 DNA,Kd,18.2 µM
